These results are taken from a protein production outcome set (Wang et al. 2014).

This series is described as follows: label from the status in PepcDB records.
Regarding “MRRLLITILIFLLSNAGCCAPVFEIIPLGVYGGLKDGNLSAYLIKAIESKNYTALDGGTLVRGLEVAVDRQSLPSKKVDDLLQKHIPAYLISHAHLDHVMGLVMAQPELREKQTIMAREETMQALQDNIFNWSVWGNFGDSGAIPHLNFQHYQTLPLLQWLAIPDTDLHVKVFPLSHSGMASSAFLIRYKTEYALYFGDTGADRIEKSTNMENIWKEIAPLIRNKQLHAIMLECSFLNSQPDDKLFGHLKPNLFMSELRHLASIVDPFDSRNSLRGLPVVVTHIKPKLADFSNTNEDTEKQVINELSQENDIGVELIKPEQGITLSL”, the protein production result was “failed”.
For the sequence “MDELRQKLQYSSFELEAVKAKANEETKLHQEEVKNLLHLLKLARQERDEAKDQLQKLLTIKTNSSITESNSHGSSPVDSFFEPVSSSEFSNFNMVPEPINQVKFKNRQQLVNRNLKKIDPVDALMDEIIKGKALPEKGKLLQTVMESGPLLQTLLVAGPLPRWRNPPPLQQSFRVPPISNSYGCLPATTTTSMLNFRGCSVPRIATGIEVATKRQRFH”, the protein production entry is “failed”.
To “MRRLVLAALLAATSLTTAKAGDLLIHGGPIHTGVEAAPTAEAVLIRDDKILFVGPLAAAKAKAAKDVRAIDLKGAAAYPGFVDAHAHLTGIGLRELTLNLDQVKSVAELVAAVKAYAAAHPEGPISGRGWIETHWPEKRFPTKADLDAAAPGRIVVLGRSDGHASVASSAALAKAGITAATVPPPGGDILKGPDGQPDGMLIDHAQALVRNVIPPPNQALKREALRKAGQLYAARGWTGMANMSVMAEDLSLLRDEAAKGNFHIRIDNYMDPSGAEEVLTKGPQTDATGLIRVQGIKLYMDGALGSRGAALLEPYSDADTLGLQLTQPEQGLALMKRAKAAGAQVAMHAIGDRGNRLVLDWFEQSLGAEAKAARWRNEHSQIVADTDVPRFAKLGVIASMQPSHAIGDLFFAPARLGKARLHEGYRWADFLKADVVVAAGSDAPVEVGDPRIEFYAAVYRHSLDGFANADWHLDQAVSRAEALKMLTLAPAYAVFREKELGTLEAGKKADVTAFDRDLMTVEPKAILTAQPVLTVVDGKVVYSR” belongs “failed”; to “MYKILEKKEIAMRNTWYKVYAPHVAKKVQPGQFVIVRAFPNGERIPLTPVMWDREEGWIVLIVFTRGKTTMRMAVELKEGDSLLNVAGPLGTPVPMEKFGKILAIGAYTGIVEVYPIAKAWQEIGNDVTTLHVTFEPMVILKEELEKAVTRHIVEPVPLNPNQDFLANMKNVSQRLKEKVRELLESEDWDLVFMVGPVGDQKQVFEVVKEYGVPMKVDLHPIMVDGTGMCGACRVTVGGEVKFACVDGPEFDAYQVDWDELIHRVGFYAKLEKLALEKYMEELKAKGVILEHHHHHH”, “failed”.
As for “TAPTLAEEVKQQSDGSVIIEGSANLRDLNKLFNWHLPINEVRTFNGLILEHLEKIPIEGTQFRLNQLNITVLEVADNMVKKVKVELIE”, the protein production result is “not failed”.
Take “MPKITVYTGKEVLQIDAKEGSSLLDILAENSLYVEAPCGGKGICGKCKVAVKKDGKPYLENITKEEKRLLTSDELQKGIRLCCNLKVFESLEVFLPHSKIGAKILSGLYTLEHHHHHH”: the protein production entry was “failed”.
“MMFGAIIQQIVLGISLAAPVGPINIEMLKRGIERGFWHAWVVGIGGMTADILFMLLIYFGLSSLFMYTYVQAFMYCTGFFLLFYLGFQSVKQGISQSNMEYKKEEVGGLKQSFMAGFLIAISNPLNLVFWFGIYGSTLSSLLTKVTKQEAFLYSLCIIVGIILWNVNIAFSVHFGRTLLKQKALGYITAGAGIILVGYSIHFAYKALQLFT”: the protein production entry was “failed”.
The entry for “MTQQLNHAKVNQHPGQATLPETAEGQVRTYEVKTYGCQMNVHDSERLSGLLEEAGYVAAPEDTTPDLVVFNTCAVRENADMRLYGTLGNLRSVKEKNPGMQIAVGGCLAQKDKDTVVKKAPWVDVVFGTHNIGSLPTLLQRAEHNAQAEVEIVDSLEQFPSVLSAKRESAYAGWVSVSVGCNNTCTFCIVPSLRGKEQDRRPGDILAEVQALVDQGVTEVTLLGQNVNAYGVNFVDPELERDRSAFSKLLRACGEIEGLERVRFTSPHPAEFTSDVIDAMAETPNICPQLHMPLQSGSDKVLKEMRRSYRSKKFLSILDEVRAKIPHASITTDIIVGFPGETEEDFQATLDVVKKARFTSAYTFQYSPRPGTPAAEYENQLPKEVVQERYERLMVVQEQVCEEENQKLIGTTVELLVQAGGGRKNDATKRMSGRARDGRLVHFAPEGDIDGEIRPGDFVTVTVTEAKPFFLIADSGVQTHRRTKAGDNSAVGQVPTTAPIGVGLGLPQIGAPKVAPATESACCSIN” is “failed”; for “MLITLPYFLTRKTLPGYIIGGDTLVHAAIARGIYLGRNPFLDQTYNVYPSWYPFLYHLIVAVTSKVFQISIEGAMLLLQATLAILGCIVFFYVAKNLWGSTAGIMAMAFSLMFLPFHRYPNPKELIPIFGALFILYFVKERWVLSGIILGLGLWSHYASMFPLFVLPLTVYIFTRRKEVITPLLISTIVFLPFAINIISHADHIIPKVEDIYAFWKTDTLEKKLLSLLPPIYLVPFLLLSLYKFYKRRDYEGTVLFLSVVTIWGLRLLPESLKPFGIQIWSTRFTVPLPTIYLLLSAYGISEIKITSKDIKTIFLGILLFLIPIASALNFWEAIKRDPFIWVSEFELKEYFPEEHFIEVSEWIKANTERDNLIATSEEAGMMINALTGRPIMATLYGHGNTFLDNEIRRKDLELLFTADCKEKAKIISKYKIKYIVLDTFVYKRWEVKDMSCIAEPVYKVENVTILRVNLNITYTNKGEIRMNKKLFWLLLIAFVVNFSVIYGRKNPCWRKWRRYDNSHGHD” it is “failed”.
The entry for “MLIINGKIIPIAHTICAFSAFFAALVTGYSLHFHKIVTNAHYTYPDEWFPSVSATIGDRYPERSIFQILIALTAFPRFLLLLGHYYLNQSKVCFLVGVLRTVSCGGWVYITSTDDHDIHDIFMITYIVLTLPWDIMITRYSSPLTSKNKGLTATIFFGTLFPMIYWYIQHSVQQRAGAYSIYAYFEWSLILLDIAFDAFAYADFKKIDIVLAFNEKPGNTSFFQIRDSSPINYGEEKSSELQKSGEKKVEKEKPVARSATGSYFRFDSFFYLLTNIFNGFLFWSNVTSLLCSIWHFPLWYMGISGYEAAILGYLGPIFLYLPFVSEAFTQYGVLLGGIIAIGAYIVQMPELRLISVAVGTSITVATFVQNLRYITNAETSFSFALTWLLGLVASVILKMGFYTNNPTWVILDERNGGYNKTALVLTVLFGMLSPYVNSINFEGKRNAQAKSASLIGKLFLAVGFGSLLFGIHQLLTDSSTTIYWAWEGYNESHGPLPWPWGALTCTVMLFASLSSVKFMGKPLVPCLLLLISTAVLSARSITQWPKYIFGGLLYAIAMLWLVPSYFSALGQVQNIWVYVLSFSVYIIFVLAHVWVVAYAFVPMGWVLREKIETVLAFSSTFIIIGALTCKNLNIQLVTMGKKFFIYVFFFAVALLSLTARFVYDIRPTGIPQPYHPDSQLITAGIWTIHFGLDNDMWASEDRMINLIKDMELDVVGLLETDTQRITMGNRDLTSKLAHDLNMYADFGPGPNKHTWGCVLLSKFPIVNSTHHLLPSPVGELAPAIHATLQTYNDTLVDVFVFHSGQEEDEEDRRLQSNYMAKLMGNTTRPAILLSYLVVDPGEGNYNTYVSETSGMHDIDPSDDDRWCEYILYRGLRRTGYARVARGTITDTELQVGKFQVLSEQALVEHSDSMYEYGHMSEPEYEDMKFPDKFLGEGERGHFYHVFDEPRYYL” is “failed”; for “MTHTIIHPSSSKSSFESPAMAYRINCQQGQTHLLWVTLRLTAPQTDVLDLHLPVWTPGSYLVREYARHLQDFTAATADGTPLEWWKCTKNQWQVACTPGLELKVRYAIYAHELSVRTSHFDRSHAYFNPAAVCLYVPQYRDQPLTITIEAPPDWRVTTPLEGWGEDGRTFWAPNYDLLVDSPFEVGTHGIYTFEVDGKPHELAVWGKGNFDPKRAIADIQRIIETEASFFGGLPYDRYVFILHLTHKGYGGLEHLNSCSLIFHRFGFQQPEQYCRFLCLVAHEFFHLWNIKRIRPQAFEVFDYDSENYTTSLWFVEGVTSYFDQLIPLWAGLFDAPTYLKLLSDSLNRYFHTPGRFVQSLSAASFDAWIKLYRPDENSINSQMSYYLKGELVALLLDLRIRLNFNHQRSLLDVLRRLWQRYCETGEGYTPDELWQTIETVADENLSTWREQFIEGTVELPLQEWLTKVGLELVPQDALPYTGLQFQQEQGSLQIKAVLRDSPAEQAGLGAGDEIIALNGWRVKAQDWSERLREYTAGETIHLTWFHDQQLQSGDLILGEPQPHYRLQCRADATPSQRAHLEAWLGATATQL” it is “failed”.
To “MDYATNCASLPKWHKVPLLSVCIPAYNRPQGLVAAVRSVVAALPREYHDQVEIVITDDSATRTAVDDLLAPWSGHWHYQHNAQRLGMVANWNTSLAKACGEFILLLHDDDYLLPQGITTILATLSQYGSQFDVFLFGVHLVDSHQRCLRRQIPRRQEWLSPAQALRQLLRHSSLVRFPALIWRRSLLDAVGYFDPTYGEATDLYQWLRFFAQKGVYTVPCATAAYRIHDQALTMGMFQAQTLATLGRIFAAAADLSLLSPAELRHCQCDFFHQFILAGTWRFLRRRQWQRAQAVYQLFDLPEVIALGRSRRWQGLRWLLGSWLWLLQQLSS” belongs “failed”; to “MGETAGREHGTVTRSAEYIGSFPVDDSCLDDQIQQLHTQLKSLKNCKSKRTVSLRFSVKGVKVYDEDETTLLMAHAMCRVSLSTARPSDAQFAFASHNPGNSDAQLYCHLFRARHARAAQFLNLLLCRCFQLYFLEKHPEEAQEECSGKKPSRAPSLLNQGFPLSVSALVSFRRAPTQGLLPGAKLFSQQSTEQVSSPEEGPTSSPTIVRKMAIRTKELRSGAYRSFTFTPLKQRHLQDKLSAPQGGMSVHRTLSRLKEFLRKGTSHCKGMHVSSSQFGRNRRSTGSSCVVLGWRV”, “failed”; to “MNAWNTIYDQFNPIAFSLGSIEVHWYGLAYACAIVTAFYMALRMIQKDPKRFPIERKEFESYFLWAELGIVLGARIGYILIYEPNSGYYLTHFWQIFNPFDSHGNFVGIRGMSYHGGLVGFLIASYLYSRKDLKKLLIYLDLIAISLPLGYVFGRIGNFLNQELVGRIVPKDSHLGQIIGIMVDNELRYPSQLIEAFLEGVIVFLMVMWAKKHTKTHGLLIVVYGLGYSLMRFIAEFYREPDSQMGVYFLNLSMGQILSLFMVIVSLGILLYATKNSKKIKENQ”, “failed”.
On to “MQTIYRLKEPQIDREEDVRTIIQTFLFQFSEKAYGGPSFNRPACCFAPHIYGAGKTFVGQNFSAYLNIFAERECSNAQTFQQLHSSNDNPQPSELKVPWKHFAEKTLSVCFKLEESFSDAPFPSFRKALMYNIILNS”, for which the protein production result is listed as “not failed”.
The entry for “SKQDASRNAAYTVDCEDYVHVVEFNPFENGDSGNLIAYGGNNYVVIGTCTFQEEEADVEGIQYKTLRTFHHGVRVDGIAWSPETRLDSLPPVIKFCTSAADMKIRLFTSDLQDKNEYKVLEGHTDFINGLVFDPKEGQEIASVSDDHTCRIWNLEGVQTAHFVLHSPGMSVCWHPEETFKLMVAEKNGTIRFYDLLAQQAILSLESEQVPLMSAHWCLKNTFKVGAVAGNDWLIWDITRSSYPQNKRPVHMDRACLFRWSTISENLFATTGYPGKMASQFQIHHLGHPQPILMGSVAVGSGLSWHRTLPLCVIGGDHKLLFWVTEV” is “not failed”.
To “MVSDWLLLAPPAAFITAALALFVVDAISSDETSGWLLSGVTTAGGLAAAAIAGVLLLSETAAGGVELFGGQLVVDGMSLLFTFIFGSVTALVAVASLDYIRDLPHKAEYYLLISLAATGMSLMASANSLVVVFISLELASLPSYALVAYLKNNRGSVEAGLKYFLIGALSSGIMLYGISLIYATTGSFLLGDIAASVGEAASTHPGVFGVGLLMVIGGFAFKTASVPFHFWAPDAYEGAPAPVAAFLSSASKAAGFVIAFRVLLVGFPIQEVAATVDWVLLFQILAVVTMTVGNFAAATQSNVKRMLAYSSIGHAGYVLIGLAALTNVGGPTAEATVLGASMLHLLVYGFMNTGAFLFVAMVEHWDVGRTFEDYNGLAREAPLACVAMTIFLFSLAGLPVGGGFLSKYYLVVGAVGTGVWWLAVVLAINSALSLYYYSRVVKAMWIESPAESLTIERYPTALYAAVMAAAAVTVLLLPGLFVFDGAAFDAAAALL” belongs “failed”.
